Laboratory results from PMC8028046 (2021).

Molecular target: amyloid-beta fibrils (Homo sapiens, UniProt P05067)
Assay: SPR

amyloid-beta fibrils, sequence (P05067 672-713): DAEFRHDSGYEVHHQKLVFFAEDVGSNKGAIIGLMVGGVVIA

Kd: ~130 nM
B1: proSP-C BRICHOS BRICHOS (protein)
chain: TATFSIGSTGLVVYDYQQLLIAYKPAPGTCCYIMKIAPESIPSLEALTRKVHNFQMECSLQAKPAVPTSKLGQAEGRDAGSAPSGGDPAFLGMAVSTLCGEVPLYYI
